Columns and labels:
[1] = tested on: human PBMCs (CD4 and CD8 T cells); experiment: Restoration of CD25 and CD69 activation markers on NECA-suppressed CD4 and CD8 T cells; type: cell-based
Protocol: (§1) Two hundred thousand (2×10^5) human peripheral blood mononuclear cells (PBMCs) human PBMC in complete IMDM medium were aliquoted into each well in a 96-well plate and the cells in the 96-well plate were pre-incubated with antibodies or small molecule inhibitors at indicated concentration for 90 minutes, followed by addition of T cell activator anti-CD3/28 dynabeads (Gibco, Cat #11132D) at ratio of 1:4 (Beads: PBMC, v/v) and NECA (DiscoverX, Cat #92-1191, final concentration […]). Cells were cultured in an incubator at 37° C., 5% CO2 for 24 hours. Cells were then collected and stimulated with anti-CD3/28 dynabeads in the presence of GolgiPlug™ Protein Transport Inhibitor (BD Biosciences, Cat #555028) according to manufacturer's manual for 4 hours. Thereafter, cells were incubated with human TruStain FcX block (Biolegend, Cat #422302) and True-Stain monocyte blocker (Biolegend, Cat #426103) for 15 minutes according the manufacturer's manual, and cells were then stained with surface markers PE-anti-CD4 (Biolegend, Cat #300550), PerCP-cy5.5-anti-CD8 (Biolegend, Cat #301032), APC/cy7-anti-CD3 (Biolegend, Cat #300426) and PE/cy7-anti-CD56 (Biolegend, Cat #362509), PE/cy7-anti-CD56 (Biolegend, Cat #362509), BV711-anti-CD25 (Biolegend, Cat #302636) and BV605-anti-CD69 (Biolegend, Cat #31938 After wash with FACS buffer, cells were stained with BV421-anti-IFN-γ (BD Bioscience, Cat #562988) and APC anti-IL-2 (BD Bioscience, cat #551383) using intracellular cytokine staining kit (BD Biosciences, cat #555028) following manufacturer's instruction. Stained samples were analyzed on FACSAria III machine. Data were analyzed using Flowjo software.

[2] = tested on: human PBMCs (CD4 T, CD8 T, NK cells); experiment: Restoration of IFN-γ and IL-2 production of NECA-suppressed T cells and NK cells (intracellular cytokine staining); type: cell-based; details: NECA
Protocol: as §1

[3] = target: T1, human A2aR-expressing CHO cells (Homo sapiens, UniProt P29274); experiment: pH-sensitive dye (Zenon pHrodo iFL RED) based internalization assay; type: cell-based; details: 24 hours
T1 construct: expressed in transfected cells; host or cells: CHO
Text: The Invitrogen™ Zenon™ pHrodo™ iFL RED human IgG Labeling Reagents (Cat. Z25612) Z25612) is low-pH sensitive dye and was used to determine the internalizing properties of the exemplary anti-A2aR antibodies following manufacture's instruction. The internalization of antibodies coupled with the Zenon™ pHrodo™ iFL RED human IgG Labeling reagents increase the fluorescence signal at low pH intracellular compartment in a cell, providing a method for visualizing internalization under fluorescent microscopy.
Twenty-five microliters (25 μL) of 4× working solution of Zenon™ pHrodo™ iFL IgG Labeling Reagent were also prepared in freestyle CHO expression medium and then added to each well of a 96-well plate containing antibodies. The solutions in the 96-well plate were mixed and incubated for 5 minutes at room temperature to allow the labeling complexes to form. Afterwards, fifty microliters (50 μl) of 2×10^6/ml human A2aR-expressing CHO cells were added to each well containing labeled antibodies. Cells were then incubated with the labeling complex for 24 hours under standard cell culture conditions. Cells were analyzed under immunofluorescent microscope (Invitrogen EVOS cell imaging system M5000) to visualize the internalization of antibodies by cells. Internalization of antibody was imaged using EVOS imaging systems (Invitrogen).

[4] = target: T2, human adenosine A2A receptor (A2aR) (human, UniProt P29274 1-412); experiment: flow cytometry on PBMC, donor human 2, isotype control
[5] = target: cynomolgus adenosine A2A receptor (A2aR) (cynomolgus); experiment: flow cytometry on PBMC, donor Cynomolgus 2, isotype control
[6] = target: cynomolgus adenosine A2A receptor (A2aR) (cynomolgus); experiment: flow cytometry on PBMC, donor Cynomolgus 1, isotype control
[7] = target: T2, human adenosine A2A receptor (A2aR); experiment: flow cytometry on PBMC, donor human 1, isotype control
[8] = target: cynomolgus adenosine A2A receptor (A2aR) (cynomolgus); experiment: flow cytometry on PBMC, donor Cynomolgus 2
[9] = target: cynomolgus adenosine A2A receptor (A2aR) (cynomolgus); experiment: flow cytometry on PBMC, donor Cynomolgus 1
[10] = target: T2, human adenosine A2A receptor (A2aR); experiment: flow cytometry, HEK293-hA2aR cells, supernatant 1 ug/ml
[11] = target: T2, human adenosine A2A receptor (A2aR); experiment: flow cytometry titration, HEK293-hA2aR cells, purified antibody
[12] = target: T2, human adenosine A2A receptor (A2aR); experiment: cell-based or functional assay
[13] = target: T2, human adenosine A2A receptor (A2aR); experiment: cell-based or functional assay; remark: listed apart in the source

T2 sequence (P29274 whole entry): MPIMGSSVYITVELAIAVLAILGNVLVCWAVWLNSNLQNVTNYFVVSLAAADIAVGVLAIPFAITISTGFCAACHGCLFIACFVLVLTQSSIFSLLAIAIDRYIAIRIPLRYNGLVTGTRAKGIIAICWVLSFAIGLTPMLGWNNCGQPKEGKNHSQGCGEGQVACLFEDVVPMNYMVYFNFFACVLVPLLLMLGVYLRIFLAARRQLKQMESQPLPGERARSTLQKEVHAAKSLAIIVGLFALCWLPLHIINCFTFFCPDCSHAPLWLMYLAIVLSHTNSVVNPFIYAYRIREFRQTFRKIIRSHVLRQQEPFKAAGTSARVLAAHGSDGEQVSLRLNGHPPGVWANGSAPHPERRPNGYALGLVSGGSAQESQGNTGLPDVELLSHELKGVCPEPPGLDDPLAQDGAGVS
T1 sequence (P29274 whole entry): as above

For `Cc1ccc(-c2nc(N)nc3c2nnn3Cc2cccc(CO[C@H]3CCOC3)n2)o1` [CPI-444], the “% of cells CD25+, CD4 T cells” value ([1]; test substance 2 μg/ml) was 62.9%, the “% of cells CD25+, CD8 T cells” value ([1]; test substance 2 μg/ml) was 35.9% and the “% of cells CD69+, CD4 T cells” value ([1]; test substance 2 μg/ml) was 52.3%. The “% of cells CD69+, CD8 T cells” value ([1]; test substance 2 μg/ml) was 52.3%, the “% of cells IFNγ+, CD4 T cells” value ([2]; test substance 2 μg/ml) was 3.66% and the “% of cells IFNγ+, CD8 T cells” value ([2]; test substance 2 μg/ml) was 11.6%. For the same molecule, the “% of cells IFNγ+, NK cells” value ([2]; test substance 2 μg/ml) was 15.1%, the “% of cells IL-2+, CD4 T cells” value ([2]; test substance 2 μg/ml) was 12.7% and the “% of cells IL-2+, CD8 T cells” value ([2]; test substance 2 μg/ml) was 3.05%. The “induction of internalization (pHrodo fluorescence microscopy, FIG. 3)” value [3] was “did not induce internalization”.

Work on “Anti-HEL isotype control (BioIntron) (antibody)” yielded a % of A2aR+ CD4+ T cells [4] of 0.012%, a % of A2aR+ CD8+ T cells [4] of 0.002% and a % of A2aR+ NK cells [4] of 0.029%. It also gave a % of A2aR+ NKT cells [4] of 0.058%, a % of A2aR+ CD4+ T cells [5] of 0.099% and a % of A2aR+ CD8+ T cells [5] of 0.007%. It also gave a % of A2aR+ NK cells [5] of 0.42%, a % of A2aR+ NKT cells [5] of 0.045% and a % of A2aR+ CD4+ T cells [6] of 0.086%. It also gave a % of A2aR+ CD8+ T cells [6] of 0.009%, a % of A2aR+ NK cells [6] of 0.46% and a % of A2aR+ NKT cells [6] of 0.22%. It also gave a % of A2aR+ CD4+ T cells [7] of 0.083%, a % of A2aR+ CD8+ T cells [7] of 0.005% and a % of A2aR+ NK cells [7] of 0.21%. For the same molecule, the % of A2aR+ NKT cells [7] was 0.11%.

With `Cc1c(C#N)cccc1-c1cc(-c2cn(Cc3cccc(C(C)(C)O)n3)nn2)nc(N)n1` [AB928] the “% of cells CD25+, CD4 T cells” value ([1]; test substance 1 μg/ml) was 59.7%, the “% of cells CD25+, CD8 T cells” value ([1]; test substance 1 μg/ml) was 32.7% and the “% of cells CD69+, CD4 T cells” value ([1]; test substance 1 μg/ml) was 57.6%. The “% of cells CD69+, CD8 T cells” value ([1]; test substance 1 μg/ml) was 55.3%, the “% of cells IFNγ+, CD4 T cells” value ([2]; test substance 1 μg/ml) was 4.07% and the “% of cells IFNγ+, CD8 T cells” value ([2]; test substance 1 μg/ml) was 14.4%. For the same molecule, the “% of cells IFNγ+, NK cells” value ([2]; test substance 1 μg/ml) was 15%, the “% of cells IL-2+, CD4 T cells” value ([2]; test substance 1 μg/ml) was 13.1% and the “% of cells IL-2+, CD8 T cells” value ([2]; test substance 1 μg/ml) was 3.15%. The “induction of internalization (pHrodo fluorescence microscopy, FIG. 3)” value [3] was “did not induce internalization”.

B1: Hu3F6-H3/Hu3F6-L5 (antibody, human IgG1, V domains shown)
VH: EVQLVQSGAEVKKPGASVKVSCKTSGFAFTSYWMNWVRQAPGQGLEWIGRIDPSDSEAHYHHKFWGRATLTVDTSSSTVYMELSSLRSEDTAVYYCLRSLYGKGDYWGHGTTVTVSS
VL: DVVMTQTPLSLSVTPGQPASISCRSSQSLVHRNGNTYLEWYLQKPGQSPQLLIYKVSNRFSGVPDRFSGSGSGTDFTLKISRVEAEDVGVYYCYQGSHVPLTFGGGTKVEIK
notes: Human IgG1 FES (L234F, L235E, P331S) and human Ig kappa constant domains; also called Hu3F6 VH3/VL5; Hu3F6-VH3/VL5
Molecule B1 has a % of A2aR+ CD4+ T cells [8] of 1.2%, a % of A2aR+ CD8+ T cells [8] of 0.11% and a % of A2aR+ NK cells [8] of 2.07%. It also gave a % of A2aR+ NKT cells [8] of 0.45%, a % of A2aR+ CD4+ T cells [9] of 1.65% and a % of A2aR+ CD8+ T cells [9] of 0.05%. For the same molecule, the % of A2aR+ NK cells [9] was 6.52%, the % of A2aR+ NKT cells [9] was 1.06% and the MFI [10] was 1900 MFI. The EC50 [11] was 0.57 nM, the “IC50 of blocking activity, cAMP-Glo, 1.25 uM NECA, HEK293-hA2aR cells, purified antibody” value [12] was 0.8 nM and the “IC50 of blocking activity, cAMP-Glo, 5 uM Adenosine, HEK293-hA2aR cells, purified antibody” value [12] was 0.6 nM. The “IC50 of blocking activity, cAMP-Glo, 300 nM NECA, HEK293-hA2aR cells, supernatant” value [13] was 5.3 nM.

Source: patent publication US20250206828A1, “ANTI-ADENOSINE RECEPTOR (A2aR) ANTIBODIES AND THE USE THEREOF” (Adept Therapeutics Inc., priority 2022, published 2025)
